# According to patent publication EP2559758A1, “Modified glyceraldehyde-3-phosphate dehydrogenase from corynebacterium glutamicum and uses thereof” (Technische Universität Hamburg-Harburg, priority 2011, dated 2013):
# Where a chain is given by its changes, count along the chain named. In names and notes the source's numbering stands.
# B1: C. glutamicum glyceraldehyde-3-phosphate dehydrogenase (gapA) variant D35G/L36T/T37K (Corynebacterium glutamicum ATCC 13032; D35G/L36T/T37K) (protein)
# chain: MTIRVGINGFGRIGRNFFRAVLERSDDLEVVAVNGTKDNKTLSTLLKFDSIMGRLGQEVEYDDDSITVGGKRIAVYAERDPKNLDWAAHNVDIVIESTGFFTDANAAKAHIEAGAKKVIISAPASNEDATFVYGVNHESYDPENHNVISGASCTTNCLAPMAKVLNDKFGIENGLMTTVHAYTGDQRLHDAPHRDLRRARAAAVNIVPTSTGAAKAVALVLPELKGKLDGYALRVPVITGSATDLTFNTKSEVTVESINAAIKEAAVGEFGETLAYSEEPLVSTDIVHDSHGSIFDAGLTKVSGNTVKVVSWYDNEWGYTCQLLRLTELVASKL
# notes: His-tag (inferred: pET-28a+ NdeI cloning, Ni-NTA purification) (N); His-tag (inferred: reverse primer has no stop codon and reads in frame into the vector's C-terminal His-tag) (C); made in house; host or cells: E. coli BL21 (DE3) CodonPlus RIPL
# B2: C. glutamicum glyceraldehyde-3-phosphate dehydrogenase (gapA) variant D35G/L36T (Corynebacterium glutamicum ATCC 13032; D35G/L36T) (protein)
# chain: B1 chain with K37T
# notes: as for B1
# B3: C. glutamicum glyceraldehyde-3-phosphate dehydrogenase (gapA) variant D35G/L36R (Corynebacterium glutamicum ATCC 13032; D35G/L36R) (protein)
# chain: B1 chain with T36R, K37T
# notes: as for B1
# B4: C. glutamicum glyceraldehyde-3-phosphate dehydrogenase (gapA) variant D35G (Corynebacterium glutamicum ATCC 13032; D35G) (protein)
# chain: B1 chain with T36L, K37T
# notes: as for B1
# B5: C. glutamicum glyceraldehyde-3-phosphate dehydrogenase (gapA) variant D35G/L36T/P192S (Corynebacterium glutamicum ATCC 13032; D35G/L36T/P192S) (protein)
# chain: B1 chain with K37T, P192S
# notes: as for B1
# B6: C. glutamicum glyceraldehyde-3-phosphate dehydrogenase (gapA), Wild-type, SEQ ID NO:1 (Corynebacterium glutamicum ATCC 13032) (protein)
# chain: B1 chain with G35D, T36L, K37T
# notes: as for B1
# B7: C. glutamicum glyceraldehyde-3-phosphate dehydrogenase (gapA) variant D35G/L36R/P192S (Corynebacterium glutamicum ATCC 13032; D35G/L36R/P192S) (protein)
# chain: B1 chain with T36R, K37T, P192S
# notes: as for B1
# B8: C. glutamicum glyceraldehyde-3-phosphate dehydrogenase (gapA) variant D35G/L36T/T37K/P192S (Corynebacterium glutamicum ATCC 13032; D35G/L36T/P192S/T37K) (protein)
# chain: B1 chain with P192S
# notes: as for B1
# Assays:
# [1] = substrate: NC(=O)c1ccc[n+]([C@@H]2O[C@H](COP(=O)(O)OP(=O)(O)OC[C@H]3O[C@@H](n4cnc5c(N)ncnc54)[C@H](OP(=O)(O)O)[C@@H]3O)[C@@H](O)[C@H]2O)c1; assay: GAPDH enzyme activity, coenzyme kinetics (NAD(P)H absorbance at 340 nm); type: biochemical, C. glutamicum; settings: coenzyme varied, 25°C, pH 8.5, 1.5 mM glyceraldehyde-3-phosphate, 50 mM Na2HPO4, mean ± S.D.
# Experimental: (§1) The above recombinant E. coli strains were cultured at 37°C in LB medium containing 100 mg/L kanamycine until an OD600 of 0.6 was reached. Then, (isopropyl-beta-D-thiogalactopyranoside (IPTG) was added to the medium to a final concentration of 0.1 mM, and the bacteria were cultured at 20°C for another 12-14 h. The E. coli cells were then harvested and washed and suspended in the buffer of 50 mM Na2HPO4 (pH 7.5), 0.2 mM EDTA and 0.1 mM dithiothreitol. Suspended cells were disrupted by sonication and centrifuged at 13.000 rpm for 1 h. The supernatant was purified by use of a Ni^2+ NTA column (GE Healthcare Bio-Sciences, Piscataway, NJ).
# (§2) The enzyme activity of glyceraldehyde-3-phosphate dehydrogenase was determined by monitoring the change of NAD(P)H in absorbance at 340 nm at 25°C using a Multiskan® spectrophotometer (Thermo Scientific, Germany). Initial rate measurements were carried out in 50 mM triethanolamine hydrochloride buffer (pH 8.5), 0.2 mM EDTA, 50 mM Na2HPO4, 1.5 mM glyceraldehyde-3-phosphate (Clermont et al., 1993). When saturation could be reached, kinetic parameters were obtained from activity measurements with coenzyme concentrations ranging from 0.1 Km to 10 Km. Each rate measurement was run in triplicate. One unit of enzyme activity corresponds to one µmol of NAD(P)H formed per minute. Kinetic constants were obtained from non-linear regression data analysis and expressed as mean ± S.D.
# (§3) The kinetic parameters determined for wild-type and mutated forms of glyceraldehyde-3-phosphate dehydrogenase are shown in Table 1. It can be seen that coenzyme specificity of glyceraldehyde-3-phosphate has been changed from NAD to NADP by the introduction of mutations at amino positions 35, 36, 37 and 192. More specifically, mutants comprising amino acid exchanges D35G/L36T/T37K, D35G/L36T/P192S, D35G/L36R/P192S, or D35G/L36T/T37K/P192S show a high catalytic efficiency and can utilize both NAD^+ and NADP^+. Table 1: Kinetic parameters of wild-type and mutated glyceraldehyde-3-phosphate dehydrogenase
# [2] = substrate: NC(=O)c1ccc[n+]([C@@H]2O[C@H](COP(=O)(O)OP(=O)(O)OC[C@H]3O[C@@H](n4cnc5c(N)ncnc54)[C@H](O)[C@@H]3O)[C@@H](O)[C@H]2O)c1; assay: as above; type: biochemical, C. glutamicum; settings: coenzyme varied, 25°C, pH 8.5, 1.5 mM glyceraldehyde-3-phosphate, 50 mM Na2HPO4, mean ± S.D.
# Experimental: as §1, §2, §3
protein,measurement,setting,value
B1,Km,[1]; other: D35G/L36T/T37K,100 ± 12 µM
same,kcat,[1]; other: D35G/L36T/T37K,8 ± 0.6 s⁻¹
same,kcat/Km,[1]; other: D35G/L36T/T37K,4800 ± 232 mM/min
same,Km,[2]; other: D35G/L36T/T37K,470 ± 32 µM
same,kcat,[2]; other: D35G/L36T/T37K,4.2 ± 0.55 s⁻¹
same,kcat/Km,[2]; other: D35G/L36T/T37K,536 ± 48 mM/min
B2,Km,[1]; other: D35G/L36T,280 ± 16 µM
same,kcat,[1]; other: D35G/L36T,5.87 ± 0.867 s⁻¹
same,kcat/Km,[1]; other: D35G/L36T,1257 ± 118 mM/min
same,Km,[2]; other: D35G/L36T,220 ± 38 µM
same,kcat,[2]; other: D35G/L36T,4.77 ± 0.617 s⁻¹
same,kcat/Km,[2]; other: D35G/L36T,1300 ± 154 mM/min
B3,Km,[1]; other: D35G/L36R,310 ± 34 µM
same,kcat,[1]; other: D35G/L36R,5.8 ± 0.433 s⁻¹
same,kcat/Km,[1]; other: D35G/L36R,1123 ± 176 mM/min
same,Km,[2]; other: D35G/L36R,180 ± 17 µM
same,kcat,[2]; other: D35G/L36R,3.4 ± 0.367 s⁻¹
same,kcat/Km,[2]; other: D35G/L36R,1134 ± 132 mM/min
B4,Km,[1]; other: D35G,830 ± 120 µM
same,kcat,[1]; other: D35G,2.97 ± 0.183 s⁻¹
same,kcat/Km,[1]; other: D35G,215 ± 22 mM/min
same,Km,[2]; other: D35G,540 ± 70 µM
same,kcat,[2]; other: D35G,6.37 ± 0.533 s⁻¹
same,kcat/Km,[2]; other: D35G,707 ± 82 mM/min
B5,Km,[1]; other: D35G/L36T/P192S,70 ± 3 µM
same,kcat,[1]; other: D35G/L36T/P192S,6.58 ± 0.467 s⁻¹
same,Km,[2]; other: D35G/L36T/P192S,120 ± 4 µM
same,kcat,[2]; other: D35G/L36T/P192S,3.78 ± 0.283 s⁻¹
same,kcat/Km,[2]; other: D35G/L36T/P192S,1952 ± 113 mM/min
B6,Km,[2]; other: Wild-type,48 ± 2 µM
same,kcat,[2]; other: Wild-type,6.45 ± 0.467 s⁻¹
same,kcat/Km,[2]; other: Wild-type,8063 ± 540 mM/min
B7,Km,[1]; other: D35G/L36R/P192S,100 ± 12 µM
same,kcat,[1]; other: D35G/L36R/P192S,6.48 ± 0.617 s⁻¹
same,kcat/Km,[1]; other: D35G/L36R/P192S,3885 ± 247 mM/min
same,Km,[2]; other: D35G/L36R/P192S,58 ± 2 µM
same,kcat,[2]; other: D35G/L36R/P192S,2.87 ± 0.183 s⁻¹
same,kcat/Km,[2]; other: D35G/L36R/P192S,2954 ± 228 mM/min
B8,Km,[1]; other: D35G/L36T/T37K/P192S,70 ± 3 µM
same,kcat,[1]; other: D35G/L36T/T37K/P192S,7.13 ± 0.75 s⁻¹
same,kcat/Km,[1]; other: D35G/L36T/T37K/P192S,5868 ± 352 mM/min
same,Km,[2]; other: D35G/L36T/T37K/P192S,100 ± 14 µM
same,kcat,[2]; other: D35G/L36T/T37K/P192S,2.73 ± 0.2 s⁻¹
same,kcat/Km,[2]; other: D35G/L36T/T37K/P192S,1640 ± 108 mM/min
